Consider 3 molecules from patent publication US20240263208A1, “CYTOCHROME P450 ENZYME” (HYPHA DISCOVERY LTD., priority 2021, published 2024).

Assay type in all cases: biochemical
Data set [1] can be described thus: Oxidase activity testing against vanoxerine. To be noted: for Average % conversion: substrate Vanoxerine, Batch 2. How it is done: (§1) Lyophilised material of recombinant P450, ferredoxin and ferredoxin reductase proteins was made as described in Example 4 and reconstituted in high purity water to the original volume. Biocatalysis was performed with shaking incubation at 27° C. in the following conditions: 100 mM potassium phosphate pH 8.0, 5 mM MgCl2 (both present in the reconstituted enzyme preparation) and 0.1 mg/ml substrate compound such as ambroxide (Sigma-Aldrich, UK), carbamazepine (Sigma-Aldrich, UK), diclofenac (Sigma-Aldrich, UK), tivantinib (MedChemtronica, Sweden), clarithromycin (Tokyo Chemical Industry, Japan), sclareol (Sigma-Aldrich, UK), celecoxib (LC Laboratories, USA), buparvaquone (Sigma-Aldrich, UK), BIRB796 (MedChemExpress, USA), vanoxerine (CiVentiChem, USA), valsartan (Tokyo Chemical Industry, Japan), ruxolitinib (LC Laboratories, USA), perindopril (Selleckchem, USA), solifenacin (Key Organics, UK), 7-ethoxycoumarin (Tokyo Chemical Industry, Japan), tofacitinib (LC Laboratories, USA), ebastine (Key Organics, UK), efavirenz (Key Organics, UK), propanalol (Sigma-Aldrich, UK) and tolbutamide (Key Organics, UK).
(§2) Concentrations of P450, ferredoxin and ferredoxin reductase were as extracted (Example 4). Reactions were initiated by addition of 10× stock of cofactor mixture (50 mM G6P, 10 mM NADP+, 10 UN/ml G6PDH) to provide a final volume of e.g., 10 μl to 90 μl for 100 μl total reaction volumes. After 16-20 hours, reactions were extracted with an equal volume of acetonitrile, centrifuged to remove precipitated proteins and conversion assessed by UPLC-MS analysis.
(§3) UPLC Data were Obtained as Follows: • Column: Acquity UPLC BEH Shield RP18 1.7 μm 2.1 mm i.d. 50 mm length • Solvents: H2O, B: Acetonitrile, both with 0.1% Formic acid • Flow rate: 1.0 ml/min • Detector: Waters Acquity UPLC PDA (UV-Vis detection) and Waters Acquity UPLC QDA (MS)
(§4) Representative results for the % conversions of various substrates to products by enzymes with mutations at position T109 or L198 and double mutants at T109 and 1129/L198 are shown in Table 4 below.

The nature of data set [2]: Oxidase activity testing against perindopril. To be noted: for Average % conversion: substrate Perindopril, Batch 2. How it is done: as §1, §2, §3, §4
The nature of data set [3]: Oxidase activity testing against solifenacin. To be noted: for Average % conversion: substrate Solifenacin, Batch 2. How it is done: as §1, §2, §3, §4
Data set [4] in a line: Oxidase activity testing against ebastine. To be noted: for Average % conversion: substrate Ebastine, Batch 2. How it is done: as §1, §2, §3, §4
Data set [5] in a line: Oxidase activity testing against valsartan. To be noted: for Average % conversion: substrate Valsartan, Batch 2. How it is done:
as §1, §2, §3, §4

Data set [6] in a line: Oxidase activity testing against celecoxib. The conditions noted are these: substrate Celecoxib; Batch 2. How it is done:
as §1, §2, §3, §4

Data set [7] in a line: Oxidase activity testing against clarithromycin. To be noted: for Average % conversion: substrate Clarithromycin, Batch 2. How it is done:
as §1, §2, §3, §4

Data set [8] can be described thus: Oxidase activity testing against 7-ethoxycoumarin. The conditions noted are these: for Average % conversion: substrate 7-ethoxycoumarin, Batch 2. How it is done: as §1, §2, §3, §4
A short description of data set [9]: Oxidase activity testing against propanalol. To be noted: for Average % conversion: substrate Propanalol, Batch 2. How it is done:
as §1, §2, §3, §4

Data set [10] in a line: Oxidase activity testing against efavirenz. The conditions noted are these: for Average % conversion: substrate Efavirenz, Batch 2. How it is done: as §1, §2, §3, §4
Data set [11] is described as follows: Oxidase activity testing against sclareol. To be noted: for Average % conversion: substrate Sclareol, Batch 2, UPLC-MS UV or MS peak areas. How it is done: as §1, §2, §3, §4
Data set [12] can be described thus: Oxidase activity testing against tofacitinib. The conditions noted are these: substrate Tofacitinib; Batch 2. How it is done: as §1, §2, §3, §4
Data set [13] can be described thus: Oxidase activity testing against BIRB796. The conditions noted are these: substrate BIRB796; Batch 2. How it is done:
as §1, §2, §3, §4

Data set [14] can be described thus: Oxidase activity testing against ruxolitinib. To be noted: substrate Ruxolitinib; Batch 2. How it is done: as §1, §2, §3, §4
Data set [15] is described as follows: Oxidase activity testing against tolbutamide. To be noted: for Average % conversion: substrate Tolbutamide, Batch 2. How it is done:
as §1, §2, §3, §4

Data set [16] in a line: Oxidase activity testing against buparvaquone. The conditions noted are these: for Average % conversion: substrate Buparvaquone, Batch 2. How it is done: as §1, §2, §3, §4

B1: M30: P450SeuC10 with L198F and T109F double mutations, SEQ ID NO: 126 (protein)
chain: MKIGTTHLTRLRGLSMTELTDITGPAAQAETVAFPQDRTCPYHPPTGYDPLRDGRPLSRVTLYDGREVWLVTAQATARALLADPRLSTDRRRDGFPVPTPRFAAGRDRFLALLGLDDPEHHRQRRLLIPSFTLKRATAQRPWIQRIVDELLDAMIARGPVADLVSAFALPVPSMVICELLGVPYADHEFFEEQSRRLFRGPTGADTTDARDRLEAYLGDLIDAKAKEAEPGDGILDDLVHNRLRAGELDRSVLVSLAVILLVAGHETTANMISLGTYTLLQHPERLAELRADPSLLPAVVEELLRMLSIAEGLQRLALEDIEIDGITIRAGEGVLFSTSVINRDTAVYEDPDDLDFHRADRHHVAFGFGIHQCLGQNLARAELEIALGSLFTRLPGLRLAAPAEEIPFKPGDTVQGMLELPVTW
modifications: SeuC10M30
Consider B1, for which the Average % conversion in [1] amounted to 79.1%; in [2], 61.4%; in data set [3] it was 3%; in data set [4], 9.7%; in data set [5], 17.1%; in data set [6], 21.6%. In addition, the Average % conversion is on record as 0.9% in data set [7]; 38% in data set [8]; 0% in data set [9]; 0% in data set [10]; 31% in data set [11]; 33.3% in [12]. Further, the results for the Average % conversion in [13], in data set [14] and in data set [15] were 38.5%, 99.1% and 35.7%, respectively. For the same molecule, in [2], the “conversion of perindopril compared to wild-type (in words)” value is “significantly increased conversion”.

B2: M53: P450SeuC10 with T109P mutation, SEQ ID NO: 124 (protein)
chain: MKIGTTHLTRLRGLSMTELTDITGPAAQAETVAFPQDRTCPYHPPTGYDPLRDGRPLSRVTLYDGREVWLVTAQATARALLADPRLSTDRRRDGFPVPTPRFAAGRDRPLALLGLDDPEHHRQRRLLIPSFTLKRATAQRPWIQRIVDELLDAMIARGPVADLVSAFALPVPSMVICELLGVPYADHEFFEEQSRRLLRGPTGADTTDARDRLEAYLGDLIDAKAKEAEPGDGILDDLVHNRLRAGELDRSVLVSLAVILLVAGHETTANMISLGTYTLLQHPERLAELRADPSLLPAVVEELLRMLSIAEGLQRLALEDIEIDGITIRAGEGVLFSTSVINRDTAVYEDPDDLDFHRADRHHVAFGFGIHQCLGQNLARAELEIALGSLFTRLPGLRLAAPAEEIPFKPGDTVQGMLELPVTW
modifications: SeuC10M53
In the case of B2, the Average % conversion in data set [1] is 44.5%; in [2], 46.5%; in data set [3], 33.6%; in [4] it was 17.4%; in data set [5], 14.3%; in data set [6], 39.1%. Also, the Average % conversion stood at 67.2% in [8]; 1.8% in data set [10]; 52.7% in data set [11]; 67.5% in data set [12]; 36.3% in [13]; 98.6% in data set [14]. In addition, the Average % conversion is listed as 54.7% in data set [16] and 77.6% in [15]. For the same molecule, in data set [3], the “conversion of solifenacin compared to wild-type (in words)” value is recorded as “significantly increased conversion”. Besides, the “product at 1.38 minutes from ebastine” value in data set [4] (FIG. 9) was “increased production”. Further, the “conversion of 7-ethoxycoumarin compared to wild-type (in words)” value in data set [8] is recorded as “significantly increased conversion”. The “conversion of buparvaquone compared to wild-type (in words)” value in data set [16] is listed as “significantly increased conversion”. Also, the “product at 1.97 minutes from buparvaquone (hydroxylation of a t-butyl methyl group)” value in data set [16] (FIG. 8) was “increased production”. In addition, the “conversion of tolbutamide compared to wild-type (in words)” value in [15] is given as “significantly increased conversion”.

B3: M32: P450SeuC10 with T109F and I259L double mutations, SEQ ID NO: 130 (protein)
chain: MKIGTTHLTRLRGLSMTELTDITGPAAQAETVAFPQDRTCPYHPPTGYDPLRDGRPLSRVTLYDGREVWLVTAQATARALLADPRLSTDRRRDGFPVPTPRFAAGRDRFLALLGLDDPEHHRQRRLLIPSFTLKRATAQRPWIQRIVDELLDAMIARGPVADLVSAFALPVPSMVICELLGVPYADHEFFEEQSRRLLRGPTGADTTDARDRLEAYLGDLIDAKAKEAEPGDGILDDLVHNRLRAGELDRSVLVSLAVLLLVAGHETTANMISLGTYTLLQHPERLAELRADPSLLPAVVEELLRMLSIAEGLQRLALEDIEIDGITIRAGEGVLFSTSVINRDTAVYEDPDDLDFHRADRHHVAFGFGIHQCLGQNLARAELEIALGSLFTRLPGLRLAAPAEEIPFKPGDTVQGMLELPVTW
modifications: SeuC10M32
For B3, in data set [1], the “conversion of vanoxerine compared to wild-type (in words)” value is “significantly increased conversion”. Also, the Average % conversion was determined as 88.8% in data set [1]; 45.6% in [2]; 25.9% in data set [3]; 10.4% in data set [4]; 66.8% in data set [5]; 35.6% in data set [6]. Further, the Average % conversion is on record as 23.3% in data set [7]; 20.2% in data set [8]; 1.6% in [9]; 1.2% in data set [10]; 84.5% in [11]; 40.8% in data set [12]. In addition, the Average % conversion came to 90.6% in data set [13], 99.2% in data set [14], 31.5% in data set [16] and 56.1% in [15]. In addition, the “conversion of valsartan compared to wild-type (in words)” value in data set [5] was “significantly increased conversion”. The “conversion of clarithromycin, not converted by wild-type (in words)” value in [7] was “achieved conversion”. Further, the “new product at 3.12 minutes (3″-O-demethylclarithromycin) from clarithromycin” value in data set [7] (chromatographic analysis, FIGS. 5 and 6) was “production of a new product”. The “conversion of propanalol, not converted by wild-type (in words)” value in data set [9] is given as “achieved conversion”. Moreover, in data set [10], the “conversion of efavirenz, not converted by wild-type (in words)” value is “achieved conversion”. For the same molecule, the “conversion of sclareol compared to wild-type (in words)” value in data set [11] was “significantly increased conversion”. Besides, the “product at 1.42 minutes from sclareol” value in data set [11] (FIG. 7) is “increased production”. Also, in data set [11] (FIG. 7), the “product at 1.55 minutes from sclareol” value was “generated a new product”.
